Results reported in paper PMC6687201, “Atg11 tethers Atg9 vesicles to initiate selective autophagy” (PLoS Biology, 2019).

T1: recombinant purified Atg11 (Atg11-His6) (yeast, UniProt Q12527 1-1178, Atto565 label in the GUV experiments)
T1 construct: N-terminal residual glycine-proline from PreScission protease digestion; Atg11, yeast; expressed from pCoofy37-Atg11; measured molecular weight 136 kDa; also called His-tagged Atg11; Atg11^Atto565; source: E. coli BL21 (DE3), coexpressed with chaperones from pG-KJE8, purified (Ni-NTA, PreScission digestion, gel filtration); not shown: His6, C-terminal, kept
T1 sequence: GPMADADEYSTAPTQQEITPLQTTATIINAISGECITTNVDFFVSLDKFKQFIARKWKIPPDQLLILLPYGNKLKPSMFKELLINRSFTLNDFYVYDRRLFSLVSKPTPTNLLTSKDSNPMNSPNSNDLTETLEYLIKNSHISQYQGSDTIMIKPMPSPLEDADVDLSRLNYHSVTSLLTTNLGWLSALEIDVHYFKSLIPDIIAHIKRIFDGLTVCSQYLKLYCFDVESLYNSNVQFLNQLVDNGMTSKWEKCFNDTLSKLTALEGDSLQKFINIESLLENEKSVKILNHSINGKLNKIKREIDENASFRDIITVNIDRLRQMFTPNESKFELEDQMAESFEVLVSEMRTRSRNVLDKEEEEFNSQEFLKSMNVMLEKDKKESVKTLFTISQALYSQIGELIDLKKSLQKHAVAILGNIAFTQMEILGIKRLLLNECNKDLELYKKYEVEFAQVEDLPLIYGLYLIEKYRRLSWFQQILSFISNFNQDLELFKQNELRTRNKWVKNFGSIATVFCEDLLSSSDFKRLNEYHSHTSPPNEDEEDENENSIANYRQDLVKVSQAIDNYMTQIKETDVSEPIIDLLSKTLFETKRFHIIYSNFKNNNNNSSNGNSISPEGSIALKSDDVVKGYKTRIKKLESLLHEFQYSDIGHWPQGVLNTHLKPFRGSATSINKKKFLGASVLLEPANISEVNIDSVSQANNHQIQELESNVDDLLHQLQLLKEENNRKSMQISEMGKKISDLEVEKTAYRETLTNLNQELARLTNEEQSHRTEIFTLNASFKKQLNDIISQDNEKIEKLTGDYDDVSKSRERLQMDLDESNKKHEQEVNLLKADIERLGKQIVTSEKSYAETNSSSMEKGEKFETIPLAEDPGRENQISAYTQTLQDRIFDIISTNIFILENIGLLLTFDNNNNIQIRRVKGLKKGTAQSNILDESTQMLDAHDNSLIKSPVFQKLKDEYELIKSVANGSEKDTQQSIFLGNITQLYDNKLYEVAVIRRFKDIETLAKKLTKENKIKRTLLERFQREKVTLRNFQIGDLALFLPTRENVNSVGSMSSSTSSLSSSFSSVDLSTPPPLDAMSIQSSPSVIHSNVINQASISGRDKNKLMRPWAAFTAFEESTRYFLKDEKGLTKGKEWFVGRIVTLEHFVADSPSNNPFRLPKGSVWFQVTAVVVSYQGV

B1: GST-tagged wild-type Atg29 (natural protein, yeast, UniProt Q12092 1-213, looked up)
chain: MIMNSTNTVVYIKVKGRRPQGFLDPPKFEWNGTKERQLWTMVSNLNYSQDQIDWQNLSKIFETPEFFLKKRTYKLFAEHLELLQLQLEKKRDLEKYSNDQVNEGMSDLIHKYTPTLQNDNLLNVSASPLTTERQDSEEVETEVTNEALQHLQTSKILNIHKKTSDSENKPNDKLDKDGINKEMECGSSDDDLSSSLSVSKSALEEALMDRLQF
notes: Atg29, yeast; also called GST-Atg29^WT; Atg29^WT
B2: GST-Atg31-Atg29^WT subcomplex (complex, yeast)
chain 1: MNVTVTVYDKNVKYRLEENIKNNKGPSNDDQPAYNNESKSTDGSDYAMFPTNIKYIFEDNNDELVDSSDAALTAGIDKVGDELENVIIVQLDESGSLEDITLISDQYELLSHRTNSLSLEENQMRTLSSHGDDKSNDEEEELSVDSDRFRVDSDIELDVISQFCDLSPFLRDLSLNDLIKLYVTQNEQLQMLSNSV
chain 2: MIMNSTNTVVYIKVKGRRPQGFLDPPKFEWNGTKERQLWTMVSNLNYSQDQIDWQNLSKIFETPEFFLKKRTYKLFAEHLELLQLQLEKKRDLEKYSNDQVNEGMSDLIHKYTPTLQNDNLLNVSASPLTTERQDSEEVETEVTNEALQHLQTSKILNIHKKTSDSENKPNDKLDKDGINKEMECGSSDDDLSSSLSVSKSALEEALMDRLQF
notes: Atg31, yeast; Atg29, yeast; also called GST-tagged Atg31 (31) and Atg29^WT (29); source: recombinant, coexpressed and purified as subcomplex
B3: GST-Atg31-Atg29^SD subcomplex (complex, yeast)
chain 1: MNVTVTVYDKNVKYRLEENIKNNKGPSNDDQPAYNNESKSTDGSDYAMFPTNIKYIFEDNNDELVDSSDAALTAGIDKVGDELENVIIVQLDESGSLEDITLISDQYELLSHRTNSLSLEENQMRTLSSHGDDKSNDEEEELSVDSDRFRVDSDIELDVISQFCDLSPFLRDLSLNDLIKLYVTQNEQLQMLSNSV
chain 2: MIMNSTNTVVYIKVKGRRPQGFLDPPKFEWNGTKERQLWTMVSNLNYSQDQIDWQNLSKIFETPEFFLKKRTYKLFAEHLELLQLQLEKKRDLEKYSNDQVNEGMSDLIHKYTPTLQNDNLLNVSASPLTTERQDSEEVETEVTNEALQHLQTSKILNIHKKTSDSENKPNDKLDKDGINKEMECGSSDDDLSSSLDVDKDALEEALMDRLQF
notes: Atg31, yeast; Atg29, yeast, phosphomimetic variant; also called GST-tagged Atg31 (31) and Atg29^SD (29^SD); source: recombinant, coexpressed and purified as subcomplex
B4: GST-tagged phosphomimetic Atg29 (Atg29^SD) (natural protein, yeast, UniProt Q12092 1-213, looked up)
chain: MIMNSTNTVVYIKVKGRRPQGFLDPPKFEWNGTKERQLWTMVSNLNYSQDQIDWQNLSKIFETPEFFLKKRTYKLFAEHLELLQLQLEKKRDLEKYSNDQVNEGMSDLIHKYTPTLQNDNLLNVSASPLTTERQDSEEVETEVTNEALQHLQTSKILNIHKKTSDSENKPNDKLDKDGINKEMECGSSDDDLSSSLDVDKDALEEALMDRLQF
notes: Atg29, yeast, phosphomimetic variant; also called GST-Atg29^SD; Atg29^(S197D, S199D, S201D); source: recombinant, purified

target: T1, recombinant purified Atg11 (Atg11-His6); test: pull-down; 10 μg recombinant GST-tagged bait coupled to Glutathione-resin, with recombinant Atg11; SDS-PAGE; settings: both partners purified

Binding result, binds:
B1
B2
B3
B4
